The source of these data is US10907134B2, “Mutated genes for the catalytic protein of oplophorus luciferase and use thereof” (JNC CORPORATION, priority 2013, dated 2021).

A short description of test [1]: Luminescence activity of KAZ mutants (pCold II, E. coli) in supernatant and precipitate of crude enzyme solution. The format is biochemical. Particulars: for Relative Luminescence Activity (Imax) Precipitate / Relative Luminescence Activity (Imax) Supernatant / Luminescence activity in the supernatants, fold higher as compared to the wild KAZ: pCold II; for Relative Luminescence Activity (Imax) Precipitate / Relative Luminescence Activity (Imax) Supernatant: E. coli BL21, 60 seconds; for Relative Luminescence Activity (Imax) Precipitate: 5 μL precipitate; for Relative Luminescence Activity (Imax) Supernatant: 5 μL supernatant; for Luminescence activity in the supernatants, fold higher as compared to the wild KAZ: supernatant, coelenterazine (Table 8).

A short description of test [2]: Luminescence activity of ZZ-fused KAZ mutants in crude enzyme solutions. Particulars: for Relative Luminescence Activity (Imax): ZZ-fused (pCold-ZZ-P-), 1 mM DTT; for Luminescence activity, times higher than that of wild KAZ: coelenterazine (Table 4); for Luminescence activity, fold higher than dnKAZ / Luminescence activity, fold higher than wild KAZ: coelenterazine (Table 9). The format is biochemical. A digest of the protocol:
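E. coli BL21 crude extracts held with 1 mM DTT (final) on ice over 5 hours. Reaction started with 1 μL extract in 100 μL TE containing 1 μg coelenterazine; luminescence read for 60 seconds, maximum intensity (Imax) reported as relative activity.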

The mark [3] stands for this setting: Table 4, 1 μL crude enzyme solution, 1 μg coelenterazine.
Setting [4] is: Table 9, crude enzyme solution, coelenterazine.
Where [5] appears, read: ZZ-fused, crude enzyme solution.

B1: KAZ-A54I: KAZ with single amino acid substitution A54I, SEQ ID NO: 6 (protein)
chain: FTLADFVGDWQQTAGYNQDQVLEQGGLSSLFQALGVSVTPIQKVVLSGENGLKIDIHVIIPYEGLSGFQMGLIEMIFKVVYPVDDHHFKIILHYGTLVIDGVTPNMIDYFGRPYPGIAVFDGKQITVTGTLWNGNKIYDERLINPDGSLLFRVTINGVTGWRLCENILA
B1: the “Relative Luminescence Activity (Imax) Precipitate” value in test [1] (Table 3, 0.5 μg coelenterazine) was found to be 13; in test [1] (Table 8, coelenterazine) it was 13. Further, the “Relative Luminescence Activity (Imax) Supernatant” value in test [1] (Table 3, 0.5 μg coelenterazine) was found to be 150; in test [1] (Table 8, coelenterazine), 151. The “Luminescence activity relative to that of dnKAZ” value in test [1] (pCold II crude enzyme solution, coelenterazine) is reported as “approximately 1/12”. In addition, the results for the “Relative Luminescence Activity (Imax)” value in test [2] (setting [3]) and in test [2] (setting [4]) were 8.9 and 8.4, respectively. Also, in test [2] (ZZ-fused, crude enzyme solution, coelenterazine), the “Luminescence activity compared with dnKAZ” value was “comparable to dnKAZ”. The “Luminescence activity, times higher than that of wild KAZ” value (“Luminescence activity … of wild KAZ” below) in test [2] (setting [5]) worked out at 8.9 times.

B2: KAZ-V44I-A54I-Y138I: KAZ mutant with three amino acid substitutions V44I, A54I and Y138I, SEQ ID NO: 16 (protein)
chain: FTLADFVGDWQQTAGYNQDQVLEQGGLSSLFQALGVSVTPIQKIVLSGENGLKIDIHVIIPYEGLSGFQMGLIEMIFKVVYPVDDHHFKIILHYGTLVIDGVTPNMIDYFGRPYPGIAVFDGKQITVTGTLWNGNKIIDERLINPDGSLLFRVTINGVTGWRLCENILA
In the case of B2, in test [1] (Table 8, coelenterazine), the “Relative Luminescence Activity (Imax) Precipitate” value was found to be 40 and the “Relative Luminescence Activity (Imax) Supernatant” value is recorded as 1,730. Moreover, the “Relative Luminescence Activity (Imax)” value in test [2] (setting [4]) is given as 66.7. Also, in test [2] (setting [5]), the “Luminescence activity, fold higher than dnKAZ” value stood at 7.1 fold and the “Luminescence activity, fold higher than wild KAZ” value is given as 67 fold.

B3: KAZ-V44I-Y138I: KAZ mutant with two amino acid substitutions V44I and Y138I, SEQ ID NO: 12 (protein)
chain: FTLADFVGDWQQTAGYNQDQVLEQGGLSSLFQALGVSVTPIQKIVLSGENGLKADIHVIIPYEGLSGFQMGLIEMIFKVVYPVDDHHFKIILHYGTLVIDGVTPNMIDYFGRPYPGIAVFDGKQITVTGTLWNGNKIIDERLINPDGSLLFRVTINGVTGWRLCENILA
Regarding B3, in test [1] (Table 8, coelenterazine), the “Relative Luminescence Activity (Imax) Precipitate” value came out at 5.0 and the “Relative Luminescence Activity (Imax) Supernatant” value is listed as 71. Further, the “Luminescence activity in the supernatants, fold higher as compared to the wild KAZ” value in test [1] is recorded as 71 fold. Moreover, in test [2] (setting [4]), the “Relative Luminescence Activity (Imax)” value is 17.1. In addition, in test [2] (setting [5]), the “Luminescence activity, fold higher than dnKAZ” value was determined as 1.8 fold and the “Luminescence activity, fold higher than wild KAZ” value was 17 fold.

B4: KAZ-Y138I: KAZ with single amino acid substitution Y138I, SEQ ID NO: 8 (protein)
chain: FTLADFVGDWQQTAGYNQDQVLEQGGLSSLFQALGVSVTPIQKVVLSGENGLKADIHVIIPYEGLSGFQMGLIEMIFKVVYPVDDHHFKIILHYGTLVIDGVTPNMIDYFGRPYPGIAVFDGKQITVTGTLWNGNKIIDERLINPDGSLLFRVTINGVTGWRLCENILA
As to B4, the “Relative Luminescence Activity (Imax) Precipitate” value is 1.4 in test [1] (Table 3, 0.5 μg coelenterazine) and 1.4 in test [1] (Table 8, coelenterazine). For the same molecule, the “Relative Luminescence Activity (Imax) Supernatant” value worked out at 32 in test [1] (Table 3, 0.5 μg coelenterazine) and 32 in test [1] (Table 8, coelenterazine). Also, the “Relative Luminescence Activity (Imax)” value was 5.9 in test [2] (setting [3]) and 7.5 in test [2] (setting [4]). In addition, the “Luminescence activity … of wild KAZ” value in test [2] (setting [5]) is on record as 5.9 times.

B5: KAZ-V44I: KAZ with single amino acid substitution V44I, SEQ ID NO: 4 (protein)
chain: FTLADFVGDWQQTAGYNQDQVLEQGGLSSLFQALGVSVTPIQKIVLSGENGLKADIHVIIPYEGLSGFQMGLIEMIFKVVYPVDDHHFKIILHYGTLVIDGVTPNMIDYFGRPYPGIAVFDGKQITVTGTLWNGNKIYDERLINPDGSLLFRVTINGVTGWRLCENILA
As for B5, the “Relative Luminescence Activity (Imax) Precipitate” value is listed as 0.6 in test [1] (Table 3, 0.5 μg coelenterazine) and 0.6 in test [1] (Table 8, coelenterazine). In addition, the “Relative Luminescence Activity (Imax) Supernatant” value in test [1] (Table 3, 0.5 μg coelenterazine) is 6.5; in test [1] (Table 8, coelenterazine) it was 6.5. In addition, the results for the “Relative Luminescence Activity (Imax)” value in test [2] (setting [3]) and in test [2] (setting [4]) were 6.6 and 7.2, respectively. Further, the “Luminescence activity … of wild KAZ” value in test [2] (setting [5]) turned out to be 6.6 times.

B6: KAZ-V44I-A54I: KAZ mutant with two amino acid substitutions V44I and A54I, SEQ ID NO: 10 (protein)
chain: FTLADFVGDWQQTAGYNQDQVLEQGGLSSLFQALGVSVTPIQKIVLSGENGLKIDIHVIIPYEGLSGFQMGLIEMIFKVVYPVDDHHFKIILHYGTLVIDGVTPNMIDYFGRPYPGIAVFDGKQITVTGTLWNGNKIYDERLINPDGSLLFRVTINGVTGWRLCENILA
For B6, in test [1] (Table 8, coelenterazine), the “Relative Luminescence Activity (Imax) Precipitate” value worked out at 5.8 and the “Relative Luminescence Activity (Imax) Supernatant” value is on record as 295. For the same molecule, in test [1], the “Luminescence activity in the supernatants, fold higher as compared to the wild KAZ” value was 295 fold. Also, in test [2] (setting [4]), the “Relative Luminescence Activity (Imax)” value is on record as 15.3. In test [2] (setting [5]), the “Luminescence activity, fold higher than dnKAZ” value is 1.6 fold and the “Luminescence activity, fold higher than wild KAZ” value came out at 15 fold.

B7: KAZ: wild 19 kDa catalytic protein of Oplophorus luciferase (19kOLase), amino acid sequence SEQ ID NO: 2 (protein, listed as Oplophorus gracilirostris)
chain: FTLADFVGDWQQTAGYNQDQVLEQGGLSSLFQALGVSVTPIQKVVLSGENGLKADIHVIIPYEGLSGFQMGLIEMIFKVVYPVDDHHFKIILHYGTLVIDGVTPNMIDYFGRPYPGIAVFDGKQITVTGTLWNGNKIYDERLINPDGSLLFRVTINGVTGWRLCENILA
Consider B7, for which the “Relative Luminescence Activity (Imax) Precipitate” value in test [1] (Table 3, 0.5 μg coelenterazine) is given as 0.1; in test [1] (Table 8, coelenterazine) it was 0.1. The “Relative Luminescence Activity (Imax) Supernatant” value in test [1] (Table 3, 0.5 μg coelenterazine) is given as 1.0; in test [1] (Table 8, coelenterazine), 1.0. The “Relative Luminescence Activity (Imax)” value in test [2] (setting [3]) and in test [2] (setting [4]) was 1.0 in each case.

B8: KAZ-A54I-Y138I: KAZ mutant with two amino acid substitutions A54I and Y138I, SEQ ID NO: 14 (protein)
chain: FTLADFVGDWQQTAGYNQDQVLEQGGLSSLFQALGVSVTPIQKVVLSGENGLKIDIHVIIPYEGLSGFQMGLIEMIFKVVYPVDDHHFKIILHYGTLVIDGVTPNMIDYFGRPYPGIAVFDGKQITVTGTLWNGNKIIDERLINPDGSLLFRVTINGVTGWRLCENILA
As for B8, in test [1] (Table 8, coelenterazine), the “Relative Luminescence Activity (Imax) Precipitate” value stood at 21 and the “Relative Luminescence Activity (Imax) Supernatant” value was determined as 982. Moreover, the “Luminescence activity in the supernatants, fold higher as compared to the wild KAZ” value in test [1] came out at 982 fold. Also, the “Relative Luminescence Activity (Imax)” value in test [2] (setting [4]) turned out to be 23.1. Moreover, in test [2] (setting [5]), the “Luminescence activity, fold higher than dnKAZ” value came to 2.5 fold and the “Luminescence activity, fold higher than wild KAZ” value was 23 fold.
